± gives the standard deviation of the averaged measurements.
Test: total protein half-life in vivo (active degradation + dilution); higher = more stable protein
[1] = E. coli NCM3722 delta-clpP delta-lon delta-hslV, growth: N-lim chemostat, doubling time 6 h
[2] = E. coli NCM3722 delta-clpP, growth: N-lim chemostat, doubling time 6 h
[3] = E. coli NCM3722 delta-hslV, growth: N-lim chemostat, doubling time 6 h
[4] = E. coli NCM3722 delta-lon, growth: N-lim chemostat, doubling time 6 h
[5] = E. coli NCM3722 delta-smpB, growth: N-lim chemostat, doubling time 6 h
[6] = wild type E. coli NCM3722, growth: C-lim chemostat, doubling time 3 h
[7] = wild type E. coli NCM3722, growth: C-lim chemostat, doubling time 6 h
[8] = wild type E. coli NCM3722, growth: C-lim chemostat, doubling time 12 h
[9] = wild type E. coli NCM3722, growth: N-lim chemostat, doubling time 6 h
[10] = wild type E. coli NCM3722, growth: N-lim chemostat, doubling time 12 h
[11] = wild type E. coli NCM3722, growth: P-lim chemostat, doubling time 6 h
[12] = wild type E. coli NCM3722, growth: P-lim chemostat, doubling time 12 h

Row | Sequence | total protein half-life in vivo [1] [h] | total protein half-life in vivo [2] [h] | total protein half-life in vivo [3] [h] | total protein half-life in vivo [4] [h] | total protein half-life in vivo [5] [h] | total protein half-life in vivo [6] [h] | total protein half-life in vivo [7] [h] | total protein half-life in vivo [8] [h] | total protein half-life in vivo [9] [h] | total protein half-life in vivo [10] [h] | total protein half-life in vivo [11] [h] | total protein half-life in vivo [12] [h]
1 | MRIGHGFDVHAFGGEGPIIIGGVRIPYEKGLLAHSDGDVALHALTDALLGAAALGDIGKLFPDTDPAFKGADSRELLREAWRRIQAKGYTLGNVDVTIIAQAPKMLPHIPQMRVFIAEDLGCHMDDVNVKATTTEKLGFTGRGEGIACEAVALLIKATK | 5.75 ± 0.23 | 4.63 ± 0.57 | 4.88 ± 0.23 | 5 ± 0.85 | 4.88 ± 0.38 | 2.872 ± 0.01 | 6.85 ± 1.3 | 10.7 | 4.9 ± 0.24 | 8.67 ± 0.53 | 5.806 ± 0.032 | 12.9 ± 0.45
2 | MRIGIDLGGTKTEVIALGDAGEQLYRHRLPTPRDDYRQTIETIATLVDMAEQATGQRGTVGMGIPGSISPYTGVVKNANSTWLNGQPFDKDLSARLQREVRLANDANCLAVSEAVDGAAAGAQTVFAVIIGTGCGAGVAFNGRAHIGGNGTAGEWGHNPLPWMDEDELRYREEVPCYCGKQGCIETFISGTGFAMDYRRLSGHALKGSEIIRLVEESDPVAELALRRYELRLAKSLAHVVNILDPDVIVLGGGMSNVDRLYQTVGQLIKQFVFGGECETPVRKAKHGDSSGVRGAAWLWPQE | 5.21 ± 0.15 | 5.38 ± 0.09 | 6.33 ± 1.9 | 5.67 ± 0.31 | 5.3 ± 0.66 | 2.8 ± 0.4 | 5.8 ± 0.29 | 11.8 ± 2.8 | 5.18 ± 0.18 | 9.94 ± 4 | 6.21 ± 0.56 | 11.7 ± 0.5
3 | MRIGIPRERLTNETRVAATPKTVEQLLKLGFTVAVESGAGQLASFDDKAFVQAGAEIVEGNSVWQSEIILKVNAPLDDEIALLNPGTTLVSFIWPAQNPELMQKLAERNVTVMAMDSVPRISRAQSLDALSSMANIAGYRAIVEAAHEFGRFFTGQITAAGKVPPAKVMVIGAGVAGLAAIGAANSLGAIVRAFDTRPEVKEQVQSMGAEFLELDFKEEAGSGDGYAKVMSDAFIKAEMELFAAQAKEVDIIVTTALIPGKPAPKLITREMVDSMKAGSVIVDLAAQNGGNCEYTVPGEIFTTENGVKVIGYTDLPGRLPTQSSQLYGTNLVNLLKLLCKEKDGNITVDFDDVVIRGVTVIRAGEITWPAPPIQVSAQPQAAQKAAPEVKTEEKCTCSPWRKYALMALAIILFGWMASVAPKEFLGHFTVFALACVVGYYVVWNVSHALHTPLMSVTNAISGIIVVGALLQIGQGGWVSFLSFIAVLIASINIFGGFTVTQRMLKMFRKN | 6.21 ± 0.11 | 6.81 ± 0.17 | 6.66 ± 0.067 | 6.58 ± 0.37 | 6.01 ± 0.82 | – | – | 14.5 ± 0.55 | 6.23 ± 0.47 | 12.6 ± 0.42 | 6.73 ± 0.34 | 11.6 ± 1.5
4 | MRIGMRLLLGYFLLVAVAAWFVLAIFVKEVKPGVRRATEGTLIDTATLLAELARPDLLSGDPTHGQLAQAFNQLQHRPFRANIGGINKVRNEYHVYMTDAQGKVLFDSANKAVGQDYSRWNDVWLTLRGQYGARSTLQNPADPESSVMYVAAPIMDGSRLIGVLSVGKPNAAMAPVIKRSERRILWASAILLGIALVIGAGMVWWINRSIARLTRYADSVTDNKPVPLPDLGSSELRKLAQALESMRVKLEGKNYIEQYVYALTHELKSPLAAIRGAAEILREGPPPEVVARFTDNILTQNARMQALVETLLRQARLENRQEVVLTAVDVAALFRRVSEARTVQLAEKKITLHVTPTEVNVAAEPALLEQALGNLLDNAIDFTPESGCITLSAEVDQEHVTLKVLDTGSGIPDYALSRIFERFYSLPRANGQKSSGLGLAFVSEVARLFNGEVTLRNVQEGGVLASLRLHRHFT | 6.22 ± 0.68 | 7.24 ± 0.64 | 6.18 ± 0.49 | 5.7 ± 0.74 | 5.49 ± 0.91 | 3.16 ± 0.14 | 6.54 ± 1.2 | 9.95 ± 2.1 | 5.81 ± 0.57 | 12.1 ± 0.34 | 6.86 ± 0.85 | 12.8 ± 1.8
5 | MRIHILGICGTFMGGLAMLARQLGHEVTGSDANVYPPMSTLLEKQGIELIQGYDASQLEPQPDLVIIGNAMTRGNPCVEAVLEKNIPYMSGPQWLHDFVLRDRWVLAVAGTHGKTTTAGMATWILEQCGYKPGFVIGGVPGNFEVSAHLGESDFFVIEADEYDCAFFDKRSKFVHYCPRTLILNNLEFDHADIFDDLKAIQKQFHHLVRIVPGQGRIIWPENDINLKQTMAMGCWSEQELVGEQGHWQAKKLTTDASEWEVLLDGEKVGEVKWSLVGEHNMHNGLMAIAAARHVGVAPADAANALGSFINARRRLELRGEANGVTVYDDFAHHPTAILATLAALRGKVGGTARIIAVLEPRSNTMKMGICKDDLAPSLGRADEVFLLQPAHIPWQVAEVAEACVQPAHWSGDVDTLADMVVKTAQPGDHILVMSNGGFGGIHQKLLDGLAKKAEAAQ | 5.233 ± 0.034 | – | 5.14 ± 0.089 | 6.73 ± 0.28 | 5.26 ± 0.38 | 2.84 ± 0.21 | – | 12.236 ± 0.0033 | 5.58 ± 0.38 | 9.82 ± 1.3 | 5.99 ± 0.1 | 12.4 ± 0.71
6 | MRIHSPYPASWALAQRIGYLYSEGEIIYLADTPFERLLDIQRQVGQCQTMTSLSQADFEARLEAVFHQNTGESQQIAQDIDQSVDLLSLSEEMPANEDLLNEDSAAPVIRLINAILSEAIKETASDIHIETYEKTMSIRFRIDGVLRTILQPNKKLAALLISRIKVMARLDIAEKRIPQDGRISLRIGRRNIDVRVSTLPSIYGERAVLRLLDKNSLQLSLNNLGMTAADKQDLENLIQLPHGIILVTGPTGSGKSTTLYAILSALNTPGRNILTVEDPVEYELEGIGQTQVNTRVDMSFARGLRAILRQDPDVVMVGEIRDTETAQIAVQASLTGHLVLSTLHTNSASGAVTRLRDMGVESFLLSSSLAGIIAQRLVRRLCPQCRQFTPVSPQQAQMFKYHQLAVTTIGTPVGCPHCHQSGYQGRMAIHEMMVVTPELRAAIHENVDEQALERLVRQQHKALIKNGLQKVISGDTSWDEVMRVASATLESEA | 6.61 | – | – | – | – | – | – | – | – | – | – | –
7 | MRIIDNLEQFRQIYASGKKWQRCVEAIENIDNIQPGVAHSIGDSLTYRVETDSATDALFTGHRRYFEVHYYLQGQQKIEYAPKETLQVVEYYRDETDREYLKGCGETVEVHEGQIVICDIHEAYRFICNNAVKKVVLKVTIEDGYFHNK [P0AC73] | – | – | – | – | – | 2.92 ± 0.37 | 6.04 ± 0.63 | 9.85 | – | – | – | –
8 | MRILLIEDDMLIGDGIKTGLSKMGFSVDWFTQGRQGKEALYSAPYDAVILDLTLPGMDGRDILREWREKGQREPVLILTARDALAERVEGLRLGADDYLCKPFALIEVAARLEALMRRTNGQASNELRHGNVMLDPGKRIATLAGEPLTLKPKEFALLELLMRNAGRVLSRKLIEEKLYTWDEEVTSNAVEVHVHHLRRKLGSDFIRTVHGIGYTLGEK | 4.652 ± 0.039 | 4.22 ± 0.3 | 4.1 ± 0.33 | 4.5 ± 0.27 | 4.06 ± 0.37 | 2.92 ± 0.042 | 5.51 ± 0.24 | 10.8 ± 1.9 | 4.2 ± 0.12 | 6.35 ± 0.32 | 5.267 ± 0.0074 | 11 ± 0.5
